Source: US10801046B2, “Methods and materials for biosynthesizing multifunctional, multivariate molecules via carbon chain modification” (INVISTA NORTH AMERICA S.A.R.L., priority 2016, dated 2020)

B1: SEQ ID NO: 88: Clostridium sulfidigenes thioesterase (protein)
chain: MELNYKEQFTIKFHEGDFMGNVKLFTIMDYVQQVSEGHSQILGVDFQSMMNKGLFWVVSRVEITMERYPKVGEDITVETCLGGREKVFMKRRFKIKDKDGQVIGRVLIYYLIVDIETRLPQKPSMCPVDININVGDVIDNKLNKIKMPGEAIETVNRKLYYNDIDINNHVNNAKYISFIEDFFSLDWHRVKKISYMQLNFIKEIKFDDSLIMNKFIEDKESNSFCINGISEISEQEFFQCRLKF
modifications: Clostridium sulfidigenes
notes: Clostridium sulfidigenes thioesterase
B2: SEQ ID NO: 91: Cryptobacterium curtum thioesterase (protein)
chain: MTISASLFLEKDYRLRTGDFDRYRRLHPTAVLDLFQDIGGLQAEMMGIGYDAMAAQDVFWAVVRTAYQVEHTPAEHEVVKVSTWPHSPSRYSFQRDYALRSTDGSLLVRGTSEWVLMDMNTRSLTSVLDYYHGSLDFIDERMFAKKLRKIRDFTEEGSGLSITPRYSDVDQNGHVNNARYASFVLDALDPSAAGSIASFQIDFRHEVIEGTPLVVFTQVEGKDIQAKGLDSNGEIKFACKITAQA
modifications: Cryptobacterium curtum (strain ATCC 700683 / DSM 15641 / 12-3)
notes: Cryptobacterium curtum thioesterase
B3: SEQ ID NO: 187: Eggerthella sp. CAG:1427 thioesterase (protein)
chain: MTIGYEQTYQLRTGDFDRYAHLLPSSILDVFQDVAGVNAEQVPGMTWKELTDAGLFWVVTRIKYEVIETPHLHEQVIARTWPLAPTRLGFQREYTMRKLDGTPLVKCSSDWILMDYKTRSFASARDFYNGPQDFSEEKVFEKKLRKIKTFEPEDTGETFQVHFVDIDINGHVNNSKYPNFVMNSLDLGEDETIKTFQIDYRHELRAGSTVRIHSKRDGNVITSMGISTEGDTAGECMFATQIELA
modifications: Eggerthella sp. CAG:1427
notes: Eggerthella sp; CAG:1427 thioesterase
B4: SEQ ID NO: 182: Firmicutes bacterium CAG:449 thioesterase (protein)
chain: MNYYQKELVLQEKDFINDELSPYSILNYFQDIAGIHADKIGLSHEELIKNDLVWVVLRNKYEIIKMPSINQKVILKTWPHQKGKIDFDREYAIYDENNNLLIKGLSKWILMNYKTRRISMFNNIKYSFECLEETNFENKFNKIEDFDINNFSFIETTTSENDLDINGHVNNASYARIVLNNIDFDITINHFEINYIKEIKANQKLKIYYLKKDNTYYIKAFNNEEVIFVLIVY
modifications: Firmicutes bacterium CAG:449
notes: Firmicutes bacterium CAG:449 thioesterase
B5: SEQ ID NO: 95: Aerococcus viridans ATCC 11563 thioesterase (protein)
chain: MINIRHYQGGKRMGLLYQESVKVRHYHCNALGEMTLPAILDIMLIASNNQEATIPEAKEGFRQEGWAWIITQNQIDINRLPRYDEDIIAETEATTYNKFFSKRHYALKTRDGLVLAQAETTFALIDLNQRSIVRIPEIVAEWYQVEKEERPSRRKRLNKEIAVESKLDRFEVKFLDIDLNNHVNNTIYLRWITNSLGMEWFEKYTPTSFTVAYEKEMYLHQEGAVHSDISTVSEDLKSGDTFNSQHVIDSEDKAHCLTEITWQVK
modifications: Aerococcus viridans ATCC 11563 = CCUG 4311
notes: Aerococcus viridans ATCC 11563 thioesterase
B6: SEQ ID NO: 184: [Clostridium] ultunense Esp thioesterase (protein)
chain: MKATPLYIKDYKVEINHVDFKGDLKLSSLFTYCQDIAGLHAENLGMGREVLYTQHRVIWVLVRVRVDIIKYPKWKDILTLETWPQEPSRMGFDRDFLIKDKKGNILAKAVSTWVVIDVESRKLVRTKSVYTGYPLVVEKRAIDCKLGNLKSSGELETAYERTVRYSDIDVNEHLNNAKYLDFIMDSFSFEEHRRFNVKSVEISYSNEALLGETIKIYEDRSRIDSNIIYMEGIREGKDLVFKSQIEIEEK
modifications: Clostridium ultunense Esp
notes: [Clostridium] ultunense Esp thioesterase
B7: SEQ ID NO: 185: Granulicatella elegans ATCC 700633 thioesterase (protein)
chain: MTVDVICQIERTILPYECDWKENLLLSQALGMMMLASRKQQQQLQNPNLIYEKGYTWIVIQHEIEIQRMPKVDEEVIIETQAISYNKFFTYREYRILSKEREELFKCITTFAMLDMKARKIVSIDEEVVLEYPLSIGKEMRKATRIPKKDFSDATTGEYKIRINDIDANLHVNNARYFDFAFSELGMEFIEDHQLKQVVIKYEKEVLPESTISCSTLWEENTLESQERRQTYHLISQDGNRCANIQMKWEEIV
modifications: Granulicatella elegans ATCC 700633
notes: Granulicatella elegans ATCC 700633 thioesterase
B8: SEQ ID NO: 183: Clostridium sp. CAG: 798 thioesterase (protein)
chain: MAIIENKYHIGIKYVDKDRLLSLRGIILLFEDIACRHSDMVGYGINDVTKTHFSWVLLNWKIKVLSRINYGSIVTVKTWSRETSKLYTYRDFEIYDENNNLICIASSKWVLLSTETGHIIHITEEIKNAYLAENKTVFNESDLHKIVEPDNAEKTFSFTVRRRDIDINNHMNNLYYLDYALEALPEEVYSKFFNNVEIMYKYSAKLGETINCFYKEEEDGYYVMMKSATDNILHALVKLY
modifications: Clostridium sp. CAG:798
notes: Clostridium sp; CAG: 798 thioesterase
B9: SEQ ID NO: 215: Schizopora paradoxa carboxylate reductase (protein, listed as Schizopora paradoxa)
chain: MASTLLQDVSPAPPLMISPLEIPLPEPVDFSKQAVEVPGTRRPGQTGHYQNAVWGFKAFPEEGPVYTLPDVFELGLSLEKNGQTSNKPFLGHRPVISAEPLKFASDYVWSTYAEADERRQNVGSALEKYFRDGTLGGGEYQTVGIWSQNRAEWQIVELACHAYGKVSVSLYDTLGKDSVEYIIEHAHLTVIFVTSQHIPLLLAMASKVPMLKLIVSVDELSSEAKRIMGIWSRTANVQVMELSELEQFGKANRLNMARPIGKSLATICYTSGTTSGPKGVLLTHSNLVSSVKSNLRASHFGEKGGIMMSYLPLAHIYERITELCTMALGGQIGFFTGDPLRLLEDASILKPNFFPSVPRVLNRVYQSAMLAGQTPGLKGYLFRTAMDAKLKKLHETGDNTHMLWDRLVFRKIQALLGGNVELVSCGSAPISVDVMDFLKIAFSCDVIEGYGMTENCGTCTRCWPNDPSSSGTVGAPQPCNEIKLVDVPSMNYTSNDKPNPRGEVCLRGNNCFSTYYKDEKNTRETVDEEGWLHTGDVGEIDSAGRLKIIDRIKNIMKLAQGEYVALEKIENVYGLHPLVAQLYVHGESLQDHLVGVIVPDPTQFAILCNSIRGTKIGANDSAELATAARDPAVAQAVLREITHEAKKAALKGFEMIKKIHLTTVPFSTENGLLTPTFKVRRKDCSIYFKEELAALYAQPTSMLK

Tested on: heptanedioyl-ACP
Assay: Cell lysate in vitro thioesterase screen (DTNB, absorbance at 410 nm) on heptanedioyl-ACP
Format: biochemical
Conditions: 0.33 mM acyl-ACP substrate, 30° C., 30 min
For B1, the “activity toward heptanedioyl-ACP (hydrolysis)” value was “notable for their activity toward heptanedioyl-ACP”.
In the case of B2, the “activity toward heptanedioyl-ACP (hydrolysis)” value is reported as “notable for their activity toward heptanedioyl-ACP”.
For B3, the “activity toward heptanedioyl-ACP (hydrolysis)” value was “notable for their activity toward heptanedioyl-ACP”.
With B4 the “activity toward heptanedioyl-ACP (hydrolysis)” value was “notable for their activity toward heptanedioyl-ACP”.
With B5 the “activity toward heptanedioyl-ACP (hydrolysis)” value was “notable for their activity toward heptanedioyl-ACP”.
With B6 the “activity toward heptanedioyl-ACP (hydrolysis)” value was “notable for their activity toward heptanedioyl-ACP”.
In the case of B7, the “activity toward heptanedioyl-ACP (hydrolysis)” value is reported as “notable for their activity toward heptanedioyl-ACP”.
With B8 the “activity toward heptanedioyl-ACP (hydrolysis)” value was “notable for their activity toward heptanedioyl-ACP”.

Tested on: heptanedioyl-ACP methyl ester
Assay: Cell lysate in vitro thioesterase screen (DTNB, absorbance at 410 nm) on heptanedioyl-ACP methyl ester
Format: biochemical
Conditions: 0.33 mM acyl-ACP substrate, 30° C., 30 min
In the case of B1, the “activity toward heptanedioyl-ACP methyl ester (hydrolysis)” value is reported as “notable for their activity toward heptanedioyl-ACP methyl ester”.
For B2, the “activity toward heptanedioyl-ACP methyl ester (hydrolysis)” value was “notable for their activity toward heptanedioyl-ACP methyl ester”.

Tested on: not listed separately
Assay: In vivo carboxylate reductase screening, substrate consumption by LC-MS, monomethyl heptanedioate
Format: cell-based, Escherichia coli
Conditions: 541 enzymes screened in vivo
Description: To screen carboxylate reductases in vivo, […] T7- pUC expression vectors was co-transformed into T7 Express lysY/Iq with the phosphopantetheinyl transferase sfp from Bacillus subtilis on a T7-pCDF expression vector. Biological duplicates of the resulting strains were incubated in 0.5 mL of terrific broth containing either 1 g/L heptanedioate or 1 g/L monomethyl heptanedioate and supplemented with 0.4 mM IPTG in 96-well deep well plates. The plates were incubated for 30 h at 30° C. in a shaking incubator. The cells were then pelleted, and culture supernatants from the same strains in media containing either heptanedioate or monomethyl heptanedioate were combined. The combined supernatants were analyzed by LC-MS to determine the concentration of heptanedioate and monomethyl heptanedioate. Carboxylate reductase activity on heptanedioate or monomethyl heptanedioate was reflected by consumption of the respective substrate in the medium.
For B9, the monomethyl heptanedioate activity was “most monomethyl heptanedioate activity”.
